The record followed here is paper PMC4749184, “Viral Replication Protein Inhibits Cellular Cofilin Actin Depolymerization Factor to Regulate the Actin Network and Promote Viral Replicase Assembly” (PLoS Pathogens, 2016).

First the molecules themselves.
T1: FLAG-tagged p33 replication protein (Tomato bushy stunt virus, UniProt P15962 1-296)
T1 construct: p33 replication protein of Tomato bushy stunt virus (tombusvirus); also called FLAG-p33; source: yeast (BY4741, cof1 ts and act1 ts strains), CUP1 promoter, in detergent-solubilized membrane fraction
T1 sequence: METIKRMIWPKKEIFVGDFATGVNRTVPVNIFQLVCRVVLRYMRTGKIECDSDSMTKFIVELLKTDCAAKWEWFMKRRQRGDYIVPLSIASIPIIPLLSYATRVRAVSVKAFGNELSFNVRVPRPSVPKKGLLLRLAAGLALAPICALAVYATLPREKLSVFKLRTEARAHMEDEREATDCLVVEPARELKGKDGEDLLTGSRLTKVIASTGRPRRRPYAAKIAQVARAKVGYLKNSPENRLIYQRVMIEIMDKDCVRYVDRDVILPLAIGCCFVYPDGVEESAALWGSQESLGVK

B1: Vps23 ESCRT I (Vps23p ESCRT factor) (natural protein, yeast (S. cerevisiae), UniProt P25604 1-385, looked up)
chain: MSANGKISVPEAVVNWLFKVIQPIYNDGRTTFHDSLALLDNFHSLRPRTRVFTHSDGTPQLLLSIYGTISTGEDGSSPHSIPVIMWVPSMYPVKPPFISINLENFDMNTISSSLPIQEYIDSNGWIALPILHCWDPAAMNLIMVVQELMSLLHEPPQDQAPSLPPKPNTQLQQEQNTPPLPPKPKSPHLKPPLPPPPPPQPASNALDLMDMDNTDISPTNHHEMLQNLQTVVNELYREDVDYVADKILTRQTVMQESIARFHEIIAIDKNHLRAVEQAIEQTMHSLNAQIDVLTANRAKVQQFSSTSHVDDEDVNSIAVAKTDGLNQLYNLVAQDYALTDTIECLSRMLHRGTIPLDTFVKQGRELARQQFLVRWHIQRITSPLS
notes: Vps23p, ESCRT-I factor, cellular host factor in yeast; source: yeast (act1-132 ts and WT), co-purified with p33
B2: Pbp2 RNA binding protein (natural protein, yeast (S. cerevisiae), UniProt P38151 1-413, looked up)
chain: MSTETTKPSITTTPTTVLVSPNTLKRKKGEDTSEEQLEAEIKRVALKDADSHSDNDHDSPDNVPSDVHLRMLCLVKHASLIVGHKGATISRIKSETSARINISNNIRGVPERIVYVRGTCDDVAKAYGMIVRALLEEHGNEDNGEDIEISINLLIPHHLMGCIIGKRGSRLREIEDLSAAKLFASPNQLLLSNDRILTINGVPDAIHIATFYISQTLLNFQMESPQKNVKRSIYYQPTQFNSVLIDHSQPNTIFHQRNHQYHPSDKLLSYKPNKNLPISSTLLSMATPQYTTASVANATAFQPNFVIPNVTVLDGPVISPAPGNHLLMNFVQQEIFIDEKFVGNVIGKDGKHINSVKESTGCSIIIQDPVEGSSERRLTIRGTFMASQAAIMLISNKIEIDRSNAERKRRSPL
notes: source: yeast (act1-132 ts and WT), co-purified with p33
B3: His6-tagged Osh6 protein (yeast Osh6p ORP) (natural protein, yeast (S. cerevisiae), UniProt Q02201 1-448, looked up)
chain: MGSKKLTVGSDSHRLSKSSFSSNKSSHSATKDQPIDTDDIDEDDESGHNIILNIISQLRPGCDLTRITLPTFILEKKSMLERVTNQLQFPEFLLQAHSEKDPLKRFLYVMKWYLAGWHIAPKAVKKPLNPVLGEYFTAYWDLPNKQQAYYISEQTSHHPPECAYFYMIPESSIRVDGVVIPKSRFLGNSSAAMMDGSTVLQFLDIKDGNGKPEKYVLTQPNVYVRGILFGKMRIELGDHMIIKSPNFQADIEFKTKGYVFGTYDAIEGTVKDYDGNAYYEISGKWNDVMYLKDLKQPRSSPKVFLDTHKESPLRPKVRPLSEQGEYESRKLWKKVTDALAVRNHPVATEEKFQIEDHQRQLAKKRIEDGVEFHPKLFRRSKPGEDLDYCIYKNIPVDEDPEKQIRSILQIAPILPGQQFTDKFFIPAFEKIKSQKKMIENEKQNPAKQ
notes: also called Osh6 ORP; 6xHis-Osh6p; source: yeast, GAL1 promoter (UpYC-NT-Gal1-OSH6), in detergent-solubilized membrane fraction
B4: Cdc34 E2 enzyme (ubiquitin-conjugating enzyme) (enzyme, yeast (S. cerevisiae), UniProt P14682 1-295, looked up)
chain: MSSRKSTASSLLLRQYRELTDPKKAIPSFHIELEDDSNIFTWNIGVMVLNEDSIYHGGFFKAQMRFPEDFPFSPPQFRFTPAIYHPNVYRDGRLCISILHQSGDPMTDEPDAETWSPVQTVESVLISIVSLLEDPNINSPANVDAAVDYRKNPEQYKQRVKMEVERSKQDIPKGFIMPTSESAYISQSKLDEPESNKDMADNFWYDSDLDDDENGSVILQDDDYDDGNNHIPFEDDDVYNYNDNDDDDERIEFEDDDDDDDDSIDNDSVMDRKQPHKAEDESEDVEDVERVSKKI
notes: Cdc34 ubiquitin-conjugating enzyme, cellular host factor in yeast; source: yeast (act1-132 ts and WT), co-purified with p33
B5: 6xHis-Vap27-1 (VAP protein, Scs2-like plant ortholog) (natural protein, UniProt Q8VZ95 1-256, looked up)
chain: MSNIDLIGMSNRDLIGMSNSELLTVEPLDLQFPFELKKQISCSLYLTNKTDNNVAFKVKTTNPKKYCVRPNTGVVLPRSTCEVLVTMQAQKEAPSDMQCKDKFLLQGVIASPGVTAKEVTPEMFSKEAGHRVEETKLRVTYVAPPRPPSPVHEGSEEGSSPRASVSDNGHGSEFSFERFIVDNKAGHQENTSEARALITKLTEEKQSAIQLNNRLQRELDQLRRESKKSQSGGIPFMYVLLVGLIGLILGYIMKRT
notes: Vap27-1, VAMP-associated protein, a plant ortholog of yeast Scs2p; also called Vap27-1 (Scs2-like); ER-localized Vap27-1; source: expressed in yeast, in detergent-solubilized membrane fraction
B6: Rpn11 deubiquitinase (enzyme, yeast (S. cerevisiae), UniProt P43588 1-306, looked up)
chain: MERLQRLMMNSKVGSADTGRDDTKETVYISSIALLKMLKHGRAGVPMEVMGLMLGEFVDDYTVNVVDVFAMPQSGTGVSVEAVDDVFQAKMMDMLKQTGRDQMVVGWYHSHPGFGCWLSSVDVNTQKSFEQLNSRAVAVVVDPIQSVKGKVVIDAFRLIDTGALINNLEPRQTTSNTGLLNKANIQALIHGLNRHYYSLNIDYHKTAKETKMLMNLHKEQWQSGLKMYDYEEKEESNLAATKSMVKIAEQYSKRIEEEKELTEEELKTRYVGRQDPKKHLSETADETLENNIVSVLTAGVNSVAIK
notes: Rpn11 deubiquitinase, cellular host factor in yeast; source: yeast (act1-132 ts and WT), co-purified with p33
B7: Tdh2 GAPDH (Tdh2p) (enzyme, yeast (S. cerevisiae), UniProt P00358 1-332, looked up)
chain: MVRVAINGFGRIGRLVMRIALQRKNVEVVALNDPFISNDYSAYMFKYDSTHGRYAGEVSHDDKHIIVDGHKIATFQERDPANLPWASLNIDIAIDSTGVFKELDTAQKHIDAGAKKVVITAPSSTAPMFVMGVNEEKYTSDLKIVSNASCTTNCLAPLAKVINDAFGIEEGLMTTVHSMTATQKTVDGPSHKDWRGGRTASGNIIPSSTGAAKAVGKVLPELQGKLTGMAFRVPTVDVSVVDLTVKLNKETTYDEIKKVVKAAAEGKLKGVLGYTEDAVVSSDFLGDSNSSIFDAAAGIQLSPKFVKLVSWYDNEYGYSTRVVDLVEHVAKA
notes: Tdh2p, glyceraldehyde-3-phosphate dehydrogenase, cellular host factor in yeast; source: yeast (act1-132 ts and WT), co-purified with p33
B8: Tef1 eEF1A (Tef1p) (natural protein, yeast (S. cerevisiae), UniProt P02994 1-458, looked up)
chain: MGKEKSHINVVVIGHVDSGKSTTTGHLIYKCGGIDKRTIEKFEKEAAELGKGSFKYAWVLDKLKAERERGITIDIALWKFETPKYQVTVIDAPGHRDFIKNMITGTSQADCAILIIAGGVGEFEAGISKDGQTREHALLAFTLGVRQLIVAVNKMDSVKWDESRFQEIVKETSNFIKKVGYNPKTVPFVPISGWNGDNMIEATTNAPWYKGWEKETKAGVVKGKTLLEAIDAIEQPSRPTDKPLRLPLQDVYKIGGIGTVPVGRVETGVIKPGMVVTFAPAGVTTEVKSVEMHHEQLEQGVPGDNVGFNVKNVSVKEIRRGNVCGDAKNDPPKGCASFNATVIVLNHPGQISAGYSPVLDCHTAHIACRFDELLEKNDRRSGKKLEDHPKFLKSGDAALVKFVPSKPMCVEAFSEYPPLGRFAVRDMRQTVAVGVIKSVDKTEKAAKVTKAAQKAAKK
notes: Tef1p, eukaryotic elongation factor 1A, cellular host factor in yeast; source: yeast (act1-132 ts and WT), co-purified with p33
B9: Vps4 AAA ATPase (Vps4p) (enzyme, yeast (S. cerevisiae), UniProt P52917 1-437, looked up)
chain: MSTGDFLTKGIELVQKAIDLDTATQYEEAYTAYYNGLDYLMLALKYEKNPKSKDLIRAKFTEYLNRAEQLKKHLESEEANAAKKSPSAGSGSNGGNKKISQEEGEDNGGEDNKKLRGALSSAILSEKPNVKWEDVAGLEGAKEALKEAVILPVKFPHLFKGNRKPTSGILLYGPPGTGKSYLAKAVATEANSTFFSVSSSDLVSKWMGESEKLVKQLFAMARENKPSIIFIDEVDALTGTRGEGESEASRRIKTELLVQMNGVGNDSQGVLVLGATNIPWQLDSAIRRRFERRIYIPLPDLAARTTMFEINVGDTPCVLTKEDYRTLGAMTEGYSGSDIAVVVKDALMQPIRKIQSATHFKDVSTEDDETRKLTPCSPGDDGAIEMSWTDIEADELKEPDLTIKDFLKAIKSTRPTVNEDDLLKQEQFTRDFGQEGN
notes: Vps4p AAA ATPase, cellular host factor in yeast; source: yeast (act1-132 ts and WT), co-purified with p33

For this assay, the target named is T1, FLAG-tagged p33 replication protein. The experiment in a line: co-IP; FLAG-affinity column purification of FLAG-p33 (co-expressed with FLAG-p92) from detergent-solubilized membrane fraction of yeast after cross-linking with 1% formaldehyde for 1 h on ice; co-purified His6-tagged host proteins detected by Western blot with anti-His antibody; yeast expressing His6-p33 as control; WT (BY4741), cof1-8 ts, cof1-22 ts, act1-121 ts, act1-132 ts, act1-105 ts and act1-112 ts yeasts at …. To be noted: partners not purified.
B1: the “co-purified with p33 from act1-132 yeast, percent of co-purification from WT yeast” value came to 108%.

Take B2: the “co-purified with p33 from act1-132 yeast, percent of co-purification from WT yeast” value was found to be 85%.

For B3, the “co-purified with p33 from act1-132 yeast, percent of co-purification from WT yeast” value turned out to be 258%.

As to B4, the “co-purified with p33 from act1-132 yeast, percent of co-purification from WT yeast” value stood at 207%.

For the molecule B5, the “co-purified with p33 from act1-132 yeast, percent of co-purification from WT yeast” value is 218%.

As to B6, the “co-purified with p33 from act1-132 yeast, percent of co-purification from WT yeast” value was 161%.

For B7, the “co-purified with p33 from act1-132 yeast, percent of co-purification from WT yeast” value was 111%.

As for B8, the “co-purified with p33 from act1-132 yeast, percent of co-purification from WT yeast” value was found to be 96%.

Regarding B9, the “co-purified with p33 from act1-132 yeast, percent of co-purification from WT yeast” value is 53%.
